Experimental findings from US20240251767A1 are described below.

The test deals with Spike protein of the COVID-19 Spike-ACE2 Binding Assay Kit (Raybiotech) (SARS-CoV2) (UniProt P0DTC2).

A word on the IC50: it is the midpoint of a concentration-inhibition curve. A lower IC50 goes with inhibition by little substance.

In turn, “human SAT Nb-Fc control VH-Ab-8 (HAb8-S) (Fc fusion)” had an IC50 of 0.079 nM.
